Test results: US20250263481A1

Biological target: human CLDN18.2 expressed on cells (human)
Assay: cell-based or functional assay

## Human IgG1 isotype antibody
  ADCC on KATOIII CLDN18.2 cells, LDH: max (% cytotoxity) (run A): 0.3%
  ADCC on KATOIII CLDN18.2 cells, LDH: max (% cytotoxity) (run B): -5.51%
  ADCC on KATOIII CLDN18.2 cells, LDH: max (% cytotoxity) (run C): -7.64%
  ADCC on NCI-N87 CLDN18.2 cells, LDH: max (% cytotoxity) (run A): -6.73%
  ADCC on NCI-N87 CLDN18.2 cells, LDH: max (% cytotoxity) (run B): -11.7%
  ADCC on NCI-N87 CLDN18.2 cells, LDH: max (% cytotoxity) (run C): -9.22%
  ADCC, FACS: Max (%): 8.3%
  ADCC, LDH: Max (%): 1.5%
  CDC on CT26 CLDN18.2 cells, LDH: max (% cytotoxity) (run A): 10.8%
  CDC on CT26 CLDN18.2 cells, LDH: max (% cytotoxity) (run B): -0.23%
  CDC on CT26 CLDN18.2 cells, LDH: max (% cytotoxity) (run C): -0.38%
  CDC on KATOIII CLDN18.2 cells, LDH: max (% cytotoxity) (run A): -0.85%
  CDC on KATOIII CLDN18.2 cells, LDH: max (% cytotoxity) (run B): -2.46%
  CDC on KATOIII CLDN18.2 cells, LDH: max (% cytotoxity) (run C): -1.53%
